Key:
[1] = molecular target: T1, human CD137-human Fc chimeric protein (Acro Biosystems cat no. 41B-H5258) (human, UniProt Q07011 24-186); assay: HTRF binding assay
T1 construct: Bought protein; The Octet Protein G and Biacore experiments name no catalogue number; also called human CD137Fc recombinant protein; human CD137-Fc recombinant protein; not shown: human IgG1 Fc tag
Experimental: (§1) Binding to human CD137Fc recombinant protein (Acro Biosystems 41B-H5258), rhesus CD137Fc recombinant protein (Sino Biologicals cat no. 90847-K02H) and mouse CD137Fc protein (Acro Biosystems 41B-M5258) was measured using an HTRF Binding assay format. All reagents and serially diluted VH were prepared in assay buffer containing PBS, 0.1% BSA and 0.4M Potassium Fluoride. Samples or assay buffer (non-specific binding) were incubated with 0.5 nM human, rhesus or mouse CD137, 1 nM Anti human-Fc Cryptate PAb (Cisbio cat. no. 61HFCKLB) and 20 nM anti His-D2 (CisBio cat no 61HISDLA) in black 384-shallow well assay plates for a minimum of 3 hours at room temperature. Time-resolved fluorescent emission at 620 nm and 665 nm was measured following excitation at 337 nm on the BMG PHERAstar plate reader. The HTRF ratio were calculated ((665 nm emission/620 nm emission)*10000) and the data corrected for (non-specific binding) to give the specific binding signal. VH bound to human and rhesus CD137 but not to mouse CD137 protein.

[2] = molecular target: T2, rhesus CD137Fc recombinant protein (Sino Biologicals cat no. 90847-K02H) (rhesus; human, UniProt H9Z8K9 24-186); assay: HTRF binding assay
T2 construct: Bought protein; also called rhesus CD137-human IgG1 Fc tagged protein; not shown: human IgG1 Fc tag
T2 sequence: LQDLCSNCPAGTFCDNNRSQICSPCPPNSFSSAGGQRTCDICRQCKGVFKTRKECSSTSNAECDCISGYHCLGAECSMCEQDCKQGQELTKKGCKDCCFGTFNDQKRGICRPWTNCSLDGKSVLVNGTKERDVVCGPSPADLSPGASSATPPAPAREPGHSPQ
Experimental: as §1

[3] = molecular target: T3, mouse CD137Fc protein (Acro Biosystems 41B-M5258) (mouse, UniProt P20334 24-187); assay: HTRF binding assay
T3 construct: Bought protein; also called mouse CD137 protein; not shown: Fc tag, detected with anti human-Fc
T3 sequence (looked up): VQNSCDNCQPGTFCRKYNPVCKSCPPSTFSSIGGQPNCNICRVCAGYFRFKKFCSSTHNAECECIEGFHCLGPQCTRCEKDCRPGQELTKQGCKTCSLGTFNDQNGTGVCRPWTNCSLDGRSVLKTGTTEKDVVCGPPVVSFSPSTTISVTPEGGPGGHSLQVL
Experimental: as §1

[4] = molecular target: T4, human CD137 expressed on the surface of CHO cells (human, UniProt Q07011 24-255); assay: FMAT, CHO human CD137 cells
T4 construct: Also used for the Jurkat reporter cells that express human CD137 (functional rows); also called CHO human CD137 cells; CHO huCD137
T4 sequence (Q07011 24-255 limits assumed): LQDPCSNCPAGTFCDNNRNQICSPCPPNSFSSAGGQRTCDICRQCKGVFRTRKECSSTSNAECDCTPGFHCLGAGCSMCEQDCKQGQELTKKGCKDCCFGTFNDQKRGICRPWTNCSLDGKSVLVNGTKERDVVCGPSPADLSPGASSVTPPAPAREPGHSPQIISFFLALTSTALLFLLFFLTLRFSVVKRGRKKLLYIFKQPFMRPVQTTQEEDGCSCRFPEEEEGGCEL
How it was run: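 FMAT binding read-out: gated on DRAQ5 (FL5) signal, with the FL2 median intensity taken as VH binding. Cells (2000/well, DRAQ5-prestained) were incubated with diluted His-tagged molecules, 1.5 nM anti-His and Alexa Fluor-488 secondary for ≥2 h at room temperature in pH 7.4 PBS buffer containing BSA and azide.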

[5] = molecular target: T5, CD137 on pre-stimulated human CD8+ T cells (human, UniProt Q07011 24-255); assay: flow cytometry, PMA/ionomycin-stimulated human CD8+ T cells, mean of 2-3 donors
T5 construct: also called pre-stimulated CD8+ cells; primary T cells
T5 sequence (Q07011 24-255 limits assumed): as above
How it was run: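 PMA/ionomycin-activated (48-72 h) CD8+ T cells purified from PBMC by negative selection were incubated with serially diluted His-tagged VH for 30 mins-1 hour at 4° C. Bound VH was detected via anti-His plus Alexa Fluor-488 secondary, with live/dead near-IR gating, and read by flow cytometry after fixation.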

B1: Humabody VH 1.11 (VHH)
VH: EVQLVESGGGLVQPGGSLRLSCEASGFTFSDYWMNWARQAPGKGLEWVANIKEDGSEKYYVDSVEGRFTISRDNAKNSTYLQMNSLRAEDTAVYYCARGGAGYSMSHYGMDVWGQGTTVTVSSHHHHHH
notes: human single VH domain
EC50 [1]: 0.58 nM | EC50 [2]: 6.8 nM | binding result [3]: no binding | EC50 [4]: 0.27 nM | EC50 [5]: 0.89 nM

B2: Humabody VH 1.18 (VHH)
VH: EVQLVESGGGLVQPGGSLRLSCAASGFTFSTHWMNWARQAPGKELEWVANINQDGSEKYYVDSVEGRFTISRDNANNSLYLQMNSLRAEDTAVYYCARGGVGYGDSHFGMDVWGLGTTVTVSSHHHHHH
notes: human single VH domain
EC50 [1]: 0.45 nM | EC50 [2]: 5.1 nM | binding result [3]: no binding | EC50 [4]: 0.31 nM | EC50 [5]: 1.9 nM

B3: Humabody VH 1.52 (VHH)
VH: EVQLVESGGGLVQIGGSLRLSCAASGFTFSKYWMIWVRQAPEKGLEWVANINQDGSEKYYVDSVEGRFTISRDNANNSLFLQMNSLRAEDTAVYYCARGGDDYSISHFGMDVSGQGTRVTVSSHHHHHH
notes: human single VH domain
EC50 [1]: 0.48 nM | EC50 [2]: 0.45 nM | binding result [3]: no binding | EC50 [4]: 0.37 nM | EC50 [5]: 0.88 nM

B4: Humabody VH 2.1 (VHH)
VH: EVQLVESGGGLVKPGGSLRVSCAASGFTFSDYYMSWFRQAPGKGLEWVSYISGSGDIIDYADSVKGRFTISRDNAKNSLYLQMNNLRAEDTAVYHCAREDSRLTGTTDFDNWGQGTLVTVSSHHHHHH
notes: human single VH domain
EC50 [1]: 3.7 nM | binding result [3]: no binding | EC50 [4]: 0.65 nM | EC50 [5]: 2.4 nM

B5: Humabody VH 2.8 (VHH)
VH: EVQLVESGGGLVKPGGSLRLSCAASGFAFSDYYMSWFRQAPGKGLEWVSHISGSGTTIDYADSVKGRFTISRDNAKNSLYLQMNSLRAEDTAVYHCAREDSRMPGTTDFDNWGQGTLVTVSSHHHHHH
notes: human single VH domain
EC50 [1]: 3.1 nM | EC50 [2]: 1.6 nM | binding result [3]: no binding | EC50 [4]: 0.19 nM | EC50 [5]: 6.5 nM

B6: Humabody VH 2.9 (VHH)
VH: EVQLVESGGGLVKPGGSLRLSCAASGFTFSDYYMTWFRQAPGKGLEWISYISGSGDTIDYAESVKGRFTISRDNAKNSLYLQMNSLRAEDTAVYHCAREDSRIAGTTDFDNWGPGTLVTVSSHHHHHH
notes: human single VH domain
EC50 [1]: 1.3 nM | EC50 [2]: 1.2 nM | binding result [3]: no binding | EC50 [4]: 0.18 nM | EC50 [5]: 0.6 nM

B7: Humabody VH 2.14 (VHH)
VH: EVQLVESGGGLVKPGGSLRLSCAASGFTFSDYYMTWFRQAPGKGLEWISYISGSGDTIDYAESVKGRFTISRDNAKNSLYLQMNSLRAEDTAVYYCAREDIRMPGTTDFDHWGQGTLVTVSSHHHHHH
notes: human single VH domain
EC50 [1]: 1.2 nM | EC50 [2]: 1.3 nM | binding result [3]: no binding | EC50 [4]: 0.31 nM | EC50 [5]: 0.61 nM

B8: Humabody VH 1.1 (VHH)
VH: EVQLVESGGGLVQPGGSLRLSCAASGFTFSSHWMTWFRQAPGKGLEWVAHIKEDGSEKYYEDSVEGRFTVSRDNAKNSVYLQMNSLRAEDTAVYYCARGGDGYSDSHFGVDVWGQGTTVTVSSHHHHHH
notes: human single VH domain; also called single domain antibody 1.1
EC50 [1]: 0.26 nM | EC50 [2]: 1.1 nM | binding result [3]: no binding | EC50 [4]: 0.22 nM | EC50 [5]: 0.22 nM

B9: Humabody VH 1.78 (VHH)
VH: QVQLVESGGGLVQPGGSLRLSCAATGFTLSNYWMNWVRQAPGKGLEWVANINQDGSERYYVDSVKGRFTISRDNAKNSLYLQMSSLRAEDTAVYFCARGGEGYGVDHYGLDVSGQGTTVTVSSHHHHHH
notes: human single VH domain
EC50 [1]: 0.21 nM | EC50 [2]: 0.14 nM | binding result [3]: no binding | EC50 [4]: 0.32 nM | EC50 [5]: 0.61 nM

From patent US20200362047A1 (CRESCENDO BIOLOGICS, published 2020)
